Results as given in patent US20200055923A1 (HEXAL, published 2020).

Biological target: T1, VEGF165 (human VEGF-A), immobilized (human, UniProt P15692-4 27-191)
T1 construct: Immobilized on the Biacore chip; also called vascular endothelial growth factor A
Assay: SPR (Biacore), VEGF165 immobilized
Procedure: To study the binding of bevacizumab to VEGF, a surface plasmon resonance (SPR) assay using Biacore™ was carried out. The interaction between bevacizumab and its target, immobilized VEGF₁₆₅, is monitored in real time. Analysis of the association and dissociation of the binding partners allows the retrieval of the kinetic parameters kₐ (association rate constant) and kd (dissociation rate constant), which quantifies the interaction between bevacizumab or its variants and VEGF₁₆₅. Furthermore, the equilibrium dissociation constant KD is calculated using the formula KD=kd/kₐ.

T1 sequence (P15692 other isoform, or with tags, fused parts or gaps limits assumed): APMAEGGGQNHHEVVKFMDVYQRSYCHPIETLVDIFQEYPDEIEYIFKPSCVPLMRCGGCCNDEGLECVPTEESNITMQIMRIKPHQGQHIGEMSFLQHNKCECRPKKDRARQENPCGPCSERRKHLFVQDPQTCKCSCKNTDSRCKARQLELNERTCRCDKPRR

Kd: 0.235 nM
B1: bevacizumab CEX peak 1, fraction enriched in CDR-H1 glycosylated bevacizumab (antibody, human IgG1, kappa, V domains shown)
VH: EVQLVESGGGLVQPGGSLRLSCAASGYTFTNYGMNWVRQAPGKGLEWVGWINTYTGEPTYAADFKRRFTFSLDTSKSTAYLQMNSLRAEDTAVYYCAKYPHYYGSSHWYFDVWGQGTLVTVSS
VL: DIQMTQSPSSLSASVGDRVTITCSASQDISNYLNWYQQKPGKAPKVLIYFTSSLHSGVPSRFSGSGSGTDFTLTISSLQPEDFATYYCQQYSTVPWTFGQGTKVEIKR
modifications: N-linked complex-type glycan (core-fucosylated, mono- to tetra-antennary, partly sialylated) at N31 of the heavy chain, in CDR-H1
notes: Humanized IgG1; also called enriched CDR-H1 glycosylated bevacizumab obtained from CEX; Fd-glycosylated variant
